Patent US20150160214A1, “Quantitation of Cellular Adhesion Dynamics Across Immobilized Receptors Under Rheological Shear Flow” (Mayo Foundation for Medical Education and Research, priority 2013, published 2015)

Key:
[1] = Urea-induced unfolding monitored by CD at 222 nm (Example 1); format: physicochemical; details: 25° Celsius, native to intermediate transition
Method: A1-1261 and A1-1238 were chemically unfolded with urea in order to compare the obtained thermodynamic parameters. The unfolding was monitored at 25° Celsius by CD at λ=222 nm, FIG. 3B. For both proteins, unfolding through an intermediate state was observed, as has been previously reported (Auton:2009). The thermodynamic parameters are illustrated in the insets of FIG. 3B and listed in the Supplement Table 2. Relative to A1-1261, A1-1238 has a marginal loss in unfolding cooperativity (+0.55±0.38 kJ/mol/M) of the transition and the midpoint, cm, of A1-1238 is increased by +0.27±0.04 M. These two contributions to the ΔG^0 cancel each other so that the N-terminal peptide is neither stabilizing nor destabilizing the conformational transition.
Isothermal urea induced unfolding of A1-1261 and A1-1238 at 25° Celsius was monitored via CD at λ=222 nm using a quartz cuvette with a path length of 1 mm and a protein concentration of 10 μM after an overnight equilibration. CD-signal was averaged for 10 min, corrected for the corresponding CD-signal of the buffer and converted into mean molar ellipticities per amino acid residue (θMRW).
Isothermal urea unfolding was analyzed using a three state reversible model (N<->I<->D) as previously described (Auton:2009, Auton:2007). All thermal unfolding transitions were analyzed according to the irreversible models provided in the Supporting Information. […]

[2] = Irreversible thermal denaturation by CD, intrinsic fluorescence and ANS fluorescence (Example 2); format: physicochemical; details: 2° Celsius/min
Method: The unfolding of disulfide-intact A1 and RCAM A1 was also monitored via CD at 222 nm, intrinsic protein fluorescence at 280 nm/359 nm and ANS fluorescence at 350 nm/495 nm as a function of temperature.
CD thermalscans were recorded between 10 and 95° Celsius at 222 nm with a protein concentration of 1 μM in a 1 cm quartz cell under moderate stirring. Prior to each measurement protein samples were equilibrated at 10° Celsius for 10-15 min in order to obtain a stable baseline. The scanrate for all Thermalscans was 2° Celsius/min. The integration time for each data point was 20 s, the bandwidth 1 nm. All measured CD data were converted into mean molar ellipticities per amino acid residue.
Thermalscans monitoring protein fluorescence were recorded at an emission wavelength of 359 nm after excitation at 280 nm using a protein concentration of 2 μM in a 1 cm quartz cell under moderate stirring. ANS-Thermalscans were recorded at 495 nm after Excitation at 350 nm using 1 μM protein and 100 μM ANS. Prior to any performed thermalscan samples were equilibrated for 10-15 min. The scanrate was 2° Celsius/min. At each temperature between 10 or 20° Celsius and 95° Celsius relative fluorescence intensity was collected for 4 s and averaged.

[3] = target: T1, platelet GPIbα (Homo sapiens, UniProt P07359); assay: Platelet pause times on surface-captured A1 domain variants, parallel plate flow chamber (Table 4, Example 3); format: cell-based; details: shear rate 1500 s^−1; mean ± std. dev., number of measurements in parentheses; NB = No Binding
T1 construct: endogenous in cells; host or cells: platelets in citrated whole blood of normal healthy volunteer donors
Method: The determination and analysis of platelet pause times and instantaneous translocation velocities over surface captured A1 and RCAM A1 was performed as previously described (Tischer:2013). Here, the inventor used the Cellix Mims Evo syringe pump controlled by VenaFluxAssay (www.cellixltd.com). Vena8™ CGS biochips were custom designed with 800 μm width by 80 μm height microchannels bonded to glass slides with a Cu^2+ chelated PEG surface serviced by Microsurfaces Inc. (www.proteinslides.com/histag.html) to which the A1 and RCAM A1 in TBS were captured by the 6×His-Tag at a total concentration of 5 μM. Citrated whole blood was obtained from the informed consent of healthy volunteer donors with approval from the Mayo Clinic Institutional Review Board and 100 μL was perfused over the surface captured A1 domains at 700 s^−1. The shear was increased or decreased in a stepwise manner to measure the dynamics of platelet adhesion at high and low shear. After allowing the flow chamber to equilibrate for 50 s at each shear rate, 1 min movies were recorded at 24 frames per second in phase contrast at 200× magnification with 2×2 pixel binning on a Zeiss AxioCam Mrm camera (6.45 μm/px) attached to a Zeiss Axio Observer.D1 inverted microscope. Tracking analysis was performed using MediaCybernetics ImagePro® Premier (www.mediacy.com/index.aspx?page=IP\_Premier) The distance travelled in the direction of flow was calculated from the coordinate data for each platelet as a function of time using √{square root over ((xt−x0)^2)}, where x0 is the coordinates of a platelet on the first frame of the movie and xt is the coordinate on subsequent frames of the movie. These trajectories were differentiated into instantaneous velocities using a Savitzky-Golay algorithm (Savitzky:1964) with a five data point window size and a second order polynomial implemented into a Mathematica (www.wolfram.com/mathematica) notebook written in our lab. Trajectories were retained for statistical analysis if the platelet was present for ≧1 s and travelled a total distance greater than 1 Distance travelled in pixels (px) was converted to (μm) using 6.45 μm/px*2/200=0.0645 μm/px. Pause times were determined by the amount of time (sec) a platelets velocity was 0±4 px/s≅0±0.23 μm/s, within the noise. Data are reported as mean velocities and pause times attained by individual platelets averaged over all platelets analyzed. Integral analysis of the cumulative pause time histogram gives the survival fraction, equation (24).
The rheological interaction of platelets with A1 domain variants harboring type 2M and type 2B mutations was studied using recently developed flow-chamber methods (19). The A1 domains ([…]) were immobilized on Vena8™ biochips (Cellix, Dublin, Ireland) coated with a Cu^2+-chelated poly-ethylene-glycol surface serviced by MicroSurfaces, Inc. (Englewood, N.J.) via the 6×His-Tag, enabling the preservation of the structural properties of the domain in solution and its concomitant effects on platelet adhesion under rheological shear flow. One-hundred microliters of citrated whole blood, obtained from the informed consent of normal healthy volunteer donors with approval from the Mayo Clinic Institutional Review Board (Rochester, Minn.), was perfused at a shear rate of 800 s^−1 followed by Tris-buffered saline. Platelets translocating on the surface-captured domains were filmed at 24 frames/s for 1 min at logarithmic intervals of the shear rate. Coordinates obtained from tracking analysis of the resulting movies were processed using the inventor recently developed statistical analytics for the quantification of cellular adhesion dynamics across immobilized receptors under rheological shear flow (supra). Biochips lacking the surface-captured A1 domain were completely inert to platelets.

In the case of “A1-1238: Recombinant human vWF A1 domain, amino acids Q1238-P1471, with N-terminal 6×His-Tag, disulfide intact”, the “Change in midpoint cm relative to A1-1261” value [1] is reported as “+0.27±0.04 M”, the “Change in unfolding cooperativity (m-value) relative to A1-1261” value [1] is reported as “+0.55±0.38 kJ/mol/M” and the “T*” value ([2]; ANS Fluorescence) is reported as 64.4 °C. For the same substance, the “ΔH*” value ([2]; ANS Fluorescence) was 63.8 kcal/mol, the “T*” value ([2]; Circular Dichroism) was 65 °C and the “ΔH*” value ([2]; Circular Dichroism) was 65 kcal/mol. For the same substance, the “T*” value ([2]; Intrinsic Fluorescence) was 63 °C, the “ΔH*” value ([2]; Intrinsic Fluorescence) was 60.7 kcal/mol and the “Pause Time 1500 s^−1 (s)” value [3] was 0.67 ± 0.07 (6) s.
